Measured values from publication PMC12990809.

Tests used:
Assay in all cases: pulldown
[1] = biological target: T1, rbm14 (Xenopus tropicalis) (UniProt A0A8J0QJ94); details: 20 nM protein, 1.5 uM RNA pool; 20 mM HEPES pH 7.8, 70 mM KCl, 10 mM NaCl, 10% glycerol, 2 mM DTT, 0.1 ug/uL BSA; 30 min, 4 C
T1 sequence: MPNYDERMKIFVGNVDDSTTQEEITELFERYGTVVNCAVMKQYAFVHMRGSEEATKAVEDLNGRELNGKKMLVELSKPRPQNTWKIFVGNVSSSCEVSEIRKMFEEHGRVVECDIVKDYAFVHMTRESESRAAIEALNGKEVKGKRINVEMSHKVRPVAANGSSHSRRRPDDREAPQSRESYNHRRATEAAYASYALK

[2] = biological target: T2, rsp-3 (Caenorhabditis elegans) (UniProt Q9NEW6); details: 20 nM protein, 1.5 uM RNA pool; 20 mM HEPES pH 7.8, 70 mM KCl, 10 mM NaCl, 10% glycerol, 2 mM DTT, 0.1 ug/uL BSA; 30 min, 4 C
T2 sequence: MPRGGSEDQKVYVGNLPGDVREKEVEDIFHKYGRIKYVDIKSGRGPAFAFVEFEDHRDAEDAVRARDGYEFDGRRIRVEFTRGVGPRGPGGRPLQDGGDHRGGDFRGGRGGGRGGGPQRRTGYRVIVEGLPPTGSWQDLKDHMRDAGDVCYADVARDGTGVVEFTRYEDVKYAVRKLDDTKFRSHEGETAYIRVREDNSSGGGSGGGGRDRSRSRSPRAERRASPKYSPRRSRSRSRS

[3] = biological target: T3, RNPC3 ins163_E (Gallus gallus) (UniProt A0A8V0ZU58); details: 20 nM protein, 1.5 uM RNA pool; 20 mM HEPES pH 7.8, 70 mM KCl, 10 mM NaCl, 10% glycerol, 2 mM DTT, 0.1 ug/uL BSA; 30 min, 4 C
T3 sequence: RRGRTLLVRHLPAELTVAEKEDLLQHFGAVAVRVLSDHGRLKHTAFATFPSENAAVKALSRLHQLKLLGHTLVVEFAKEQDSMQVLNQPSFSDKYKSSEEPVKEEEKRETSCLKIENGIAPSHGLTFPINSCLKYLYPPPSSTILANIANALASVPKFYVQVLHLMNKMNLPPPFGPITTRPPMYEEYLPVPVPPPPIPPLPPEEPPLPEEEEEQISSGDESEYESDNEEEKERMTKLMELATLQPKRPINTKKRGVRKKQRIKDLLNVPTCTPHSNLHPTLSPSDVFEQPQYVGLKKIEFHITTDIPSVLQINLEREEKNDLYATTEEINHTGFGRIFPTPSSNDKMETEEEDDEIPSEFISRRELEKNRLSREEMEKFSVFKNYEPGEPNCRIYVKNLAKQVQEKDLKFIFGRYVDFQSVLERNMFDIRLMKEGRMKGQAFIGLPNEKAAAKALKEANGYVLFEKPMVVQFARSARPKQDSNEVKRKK

[4] = biological target: T4, Smp_024140 (Schistosoma mansoni) (UniProt G4VQ61); details: 20 nM protein, 1.5 uM RNA pool; 20 mM HEPES pH 7.8, 70 mM KCl, 10 mM NaCl, 10% glycerol, 2 mM DTT, 0.1 ug/uL BSA; 30 min, 4 C
T4 sequence: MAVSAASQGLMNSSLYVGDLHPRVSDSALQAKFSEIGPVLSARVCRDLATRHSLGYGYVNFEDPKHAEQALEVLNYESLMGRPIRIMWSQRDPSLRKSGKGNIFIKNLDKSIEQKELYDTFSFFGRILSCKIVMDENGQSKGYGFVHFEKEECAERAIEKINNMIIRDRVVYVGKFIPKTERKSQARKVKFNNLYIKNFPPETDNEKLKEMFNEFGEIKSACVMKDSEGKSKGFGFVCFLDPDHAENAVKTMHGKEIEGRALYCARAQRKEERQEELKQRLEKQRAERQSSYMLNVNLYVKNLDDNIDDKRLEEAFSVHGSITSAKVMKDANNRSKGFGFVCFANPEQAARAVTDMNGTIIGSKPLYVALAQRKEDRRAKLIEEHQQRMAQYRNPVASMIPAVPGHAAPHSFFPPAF

[5] = biological target: T5, rnp-3 (Caenorhabditis elegans) (UniProt Q21323); details: 20 nM protein, 1.5 uM RNA pool; 20 mM HEPES pH 7.8, 70 mM KCl, 10 mM NaCl, 10% glycerol, 2 mM DTT, 0.1 ug/uL BSA; 30 min, 4 C
T5 sequence: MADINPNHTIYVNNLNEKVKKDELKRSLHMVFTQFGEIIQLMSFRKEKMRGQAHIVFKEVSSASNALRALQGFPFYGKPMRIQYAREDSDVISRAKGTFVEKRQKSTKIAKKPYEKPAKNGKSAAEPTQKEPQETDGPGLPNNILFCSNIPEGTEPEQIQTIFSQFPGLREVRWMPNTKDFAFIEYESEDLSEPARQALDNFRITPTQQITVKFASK

[6] = biological target: T6, qkr58E-2 (Drosophila melanogaster) (UniProt Q5BID2); details: 20 nM protein, 1.5 uM RNA pool; 20 mM HEPES pH 7.8, 70 mM KCl, 10 mM NaCl, 10% glycerol, 2 mM DTT, 0.1 ug/uL BSA; 30 min, 4 C
T6 sequence: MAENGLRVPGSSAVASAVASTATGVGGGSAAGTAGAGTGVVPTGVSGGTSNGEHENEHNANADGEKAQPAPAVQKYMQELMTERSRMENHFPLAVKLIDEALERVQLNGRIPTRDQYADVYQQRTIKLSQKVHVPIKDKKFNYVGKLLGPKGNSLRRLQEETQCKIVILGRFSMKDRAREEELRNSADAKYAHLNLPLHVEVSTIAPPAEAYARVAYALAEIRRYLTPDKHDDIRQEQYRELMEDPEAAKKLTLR

[7] = biological target: T7, TVAG_371220 (Trichomonas vaginalis) (UniProt A2FYE4); details: 20 nM protein, 1.5 uM RNA pool; 20 mM HEPES pH 7.8, 70 mM KCl, 10 mM NaCl, 10% glycerol, 2 mM DTT, 0.1 ug/uL BSA; 30 min, 4 C
T7 sequence: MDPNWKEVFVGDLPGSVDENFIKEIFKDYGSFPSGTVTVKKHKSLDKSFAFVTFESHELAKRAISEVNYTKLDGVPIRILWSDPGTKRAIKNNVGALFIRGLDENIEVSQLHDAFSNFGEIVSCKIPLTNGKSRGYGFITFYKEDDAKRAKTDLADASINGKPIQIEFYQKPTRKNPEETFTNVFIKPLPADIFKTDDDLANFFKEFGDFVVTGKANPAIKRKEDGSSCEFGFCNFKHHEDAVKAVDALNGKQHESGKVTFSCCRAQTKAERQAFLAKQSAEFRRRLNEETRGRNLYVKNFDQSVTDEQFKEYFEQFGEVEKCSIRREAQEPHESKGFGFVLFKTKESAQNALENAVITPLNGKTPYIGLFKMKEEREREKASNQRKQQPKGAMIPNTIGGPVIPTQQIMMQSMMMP

[8] = biological target: T8, Hrb27C (Drosophila melanogaster) (UniProt P48809); details: 20 nM protein, 1.5 uM RNA pool; 20 mM HEPES pH 7.8, 70 mM KCl, 10 mM NaCl, 10% glycerol, 2 mM DTT, 0.1 ug/uL BSA; 30 min, 4 C (protocol of this paper; not …); cited from earlier work
T8 sequence: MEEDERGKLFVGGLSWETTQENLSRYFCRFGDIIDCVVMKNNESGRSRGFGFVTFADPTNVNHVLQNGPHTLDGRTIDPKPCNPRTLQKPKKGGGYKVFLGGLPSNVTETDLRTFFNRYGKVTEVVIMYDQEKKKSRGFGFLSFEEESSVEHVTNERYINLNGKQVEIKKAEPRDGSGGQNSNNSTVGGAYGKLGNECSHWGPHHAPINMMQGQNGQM

[9] = biological target: T9, PK01594.1 (Cannabis sativa) (UniProt A0A803NG34); details: 20 nM protein, 1.5 uM RNA pool; 20 mM HEPES pH 7.8, 70 mM KCl, 10 mM NaCl, 10% glycerol, 2 mM DTT, 0.1 ug/uL BSA; 30 min, 4 C
T9 sequence: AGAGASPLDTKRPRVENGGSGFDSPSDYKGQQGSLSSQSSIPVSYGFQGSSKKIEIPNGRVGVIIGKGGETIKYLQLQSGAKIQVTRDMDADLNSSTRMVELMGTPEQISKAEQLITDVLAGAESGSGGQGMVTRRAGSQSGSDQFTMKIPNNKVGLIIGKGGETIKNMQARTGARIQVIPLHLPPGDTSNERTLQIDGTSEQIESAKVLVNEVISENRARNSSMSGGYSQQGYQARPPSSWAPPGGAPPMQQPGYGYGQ

## CGACGA [RNAcompete motif RNCMPT00514]
[1]
  binding signal (z-score (mean of top ten 7-mers)): 10.1

## AGGACGA [RNAcompete motif RNCMPT00503]
[2]
  binding signal (z-score (mean of top ten 7-mers)): 7.55

## UUACGUA [RNAcompete motif RNCMPT00630]
[3]
  binding signal (z-score (mean of top ten 7-mers)): 6.68

## AAAAAA [RNAcompete motif RNCMPT00501]
[4]
  binding signal (z-score (mean of top ten 7-mers)): 8.02

## AGCACGG [RNAcompete motif RNCMPT00510]
[5]
  binding signal (z-score (mean of top ten 7-mers)): 14.1

## AUAAUA [RNAcompete motif RNCMPT00637]
[6]
  binding signal (z-score (mean of top ten 7-mers)): 13

## AAAAAAG [RNAcompete motif RNCMPT00623]
[7]
  binding signal (z-score (mean of top ten 7-mers)): 11.9

## UAGGNUA [RNAcompete motif RNCMPT00093]
[8]
  binding signal (z-score (mean of top ten 7-mers)): 12.1

## AUAUUGU [RNAcompete motif RNCMPT00478]
[9]
  binding signal (z-score (mean of top ten 7-mers)): 7.33
